Test results published in patent publication US20120269817A1 (Bayer, published 2012).
Residue numbers refer to the chain shown, from its start. Values belong to the binder of their own block, whether it stands above or below them.

Legend:
[1] = molecular target: T1, human tissue factor pathway inhibitor (TFPI) (human, UniProt P10646 29-304, limits assumed); assay: cell-based or functional assay
T1 sequence (looked up): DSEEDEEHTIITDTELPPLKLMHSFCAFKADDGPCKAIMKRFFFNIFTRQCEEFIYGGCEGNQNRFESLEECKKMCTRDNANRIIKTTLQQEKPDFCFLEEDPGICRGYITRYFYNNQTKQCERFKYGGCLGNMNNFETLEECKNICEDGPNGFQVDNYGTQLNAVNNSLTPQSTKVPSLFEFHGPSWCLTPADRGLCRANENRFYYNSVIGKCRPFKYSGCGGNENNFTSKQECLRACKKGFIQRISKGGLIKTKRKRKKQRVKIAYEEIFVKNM

[2] = molecular target: T1, human tissue factor pathway inhibitor …; assay: ELISA, Fab on coated TFPI
Method: (§1) To select antibody clones that bind to human TFPI, Fab genes of the phage clones from the second and third round of panning were subcloned into a bacterial expression vector and expressed in E. coli strain TG1. The bacterial lysate was added to the wells of the human TFPI-coated Maxisorp plates. After washing, HRP-conjugated goat anti-human Fab was used as a detection antibody and the plates were developed by adding AmplexRed (Invitrogen) with hydrogen peroxide. A signal of at least five-fold higher than the background was considered as positive. The cross reactivity of the anti-human TFPI antibodies to mouse TFPI was determined by a similar mouse TFPI-binding ELISA. The plates were coated with mouse TFPI (R&D System), BSA and lysozyme. The later two antigens were used as negative controls.
(§2) Purified Fab antibodies were used to determine EC₅₀ of anti-TFPI antibodies to human or mouse TFPI. EC₅₀ was assessed in an ELISA, similarly as described above. The results were analyzed using SoftMax. The binding affinity of anti-TFPI antibodies was determined in a Biacore assay. Briefly, the antigen, either human or mouse TFPI, was immobilized on the CM5-chips using the amine coupling kit (GE HealthCare) according to the instructions of the manufacturer. The amount of immobilized TFPI was adjusted to the mass of the antigen to give approximate 300 RU. The antibody Fabs were analyzed in mobile phase and at least five different concentrations (0.1, 0.4, 1.6, 6.4 and 25 nM) of the purified antibodies were used in the Biacore assay. The kinetics and binding affinity were calculated using Biacore T100 Evaluation software.

[3] = molecular target: T2, mouse tissue factor pathway inhibitor (TFPI) (mouse, UniProt O54819 29-289, limits assumed); assay: ELISA, Fab on coated TFPI
T2 construct: Bought protein; also called mouse TFPI; mTFPI
T2 sequence (looked up): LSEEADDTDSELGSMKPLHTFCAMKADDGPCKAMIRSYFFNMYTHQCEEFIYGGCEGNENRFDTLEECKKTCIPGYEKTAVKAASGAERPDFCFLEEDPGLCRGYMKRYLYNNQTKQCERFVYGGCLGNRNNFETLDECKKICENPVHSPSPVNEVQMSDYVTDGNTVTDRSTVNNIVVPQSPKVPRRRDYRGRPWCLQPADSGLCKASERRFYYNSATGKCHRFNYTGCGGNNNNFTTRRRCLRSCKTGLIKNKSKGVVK
Method: as §1, §2

[4] = molecular target: T1, human tissue factor pathway inhibitor …; assay: Biacore, TFPI on CM5 chip, Fab in mobile phase
Method: as §2

[5] = molecular target: T2, mouse tissue factor pathway inhibitor …; assay: Biacore, TFPI on CM5 chip, Fab in mobile phase
Method: as §2

BSA = molecular target: T3, BSA (bovine, UniProt P02769 25-607); assay: ELISA
T3 construct: also called bovine serum albumin
Method: as §1

human TFPI K1 = molecular target: T4, human TFPI K1 (human, UniProt P10646 29-107, limits assumed); assay: Western blots and ELISA
T4 construct: domain: K1; also called Kunitz domain 1
T4 sequence (looked up): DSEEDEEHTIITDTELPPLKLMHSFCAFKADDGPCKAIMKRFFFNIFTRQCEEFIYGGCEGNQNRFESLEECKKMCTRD
Method: Western blots and ELISA were used to determine which domain(s) of TFPI of the inhibitory antibodies bind. Recombinant full length human TFPI or TFPI domains were used for these studies. ELISA was similar to Example 3. In the Western Blot, human TFPI or domains were run on 4-12% Bis-Tris SDS PAGE running buffer MES (Invitrogen, Carlsbad, Calif.) and then transferred to cellulose membrane. After incubation with inhibitory antibodies for 10 min, the membrane was washed three times using SNAPid system (Millipore, Billerica, Mass.). A HRP conjugated donkey anti-mouse antibody (Pierce, Rockford, Ill.) at 1 to 10,000 dilution was incubated with the membrane for 10 min. After a similar wash step, the membrane was developed using SuperSignal substrate (Pierce, Rockford, Ill.). Whereas the control anti-Kunitz domain 1 antibody binds to full length TFPI, truncated TFPI and domains, inhibitory anti-TFPI antibodies only bind to TFPI containing Kunitz domain 2.

T3 sequence (P02769 25-607 limits assumed): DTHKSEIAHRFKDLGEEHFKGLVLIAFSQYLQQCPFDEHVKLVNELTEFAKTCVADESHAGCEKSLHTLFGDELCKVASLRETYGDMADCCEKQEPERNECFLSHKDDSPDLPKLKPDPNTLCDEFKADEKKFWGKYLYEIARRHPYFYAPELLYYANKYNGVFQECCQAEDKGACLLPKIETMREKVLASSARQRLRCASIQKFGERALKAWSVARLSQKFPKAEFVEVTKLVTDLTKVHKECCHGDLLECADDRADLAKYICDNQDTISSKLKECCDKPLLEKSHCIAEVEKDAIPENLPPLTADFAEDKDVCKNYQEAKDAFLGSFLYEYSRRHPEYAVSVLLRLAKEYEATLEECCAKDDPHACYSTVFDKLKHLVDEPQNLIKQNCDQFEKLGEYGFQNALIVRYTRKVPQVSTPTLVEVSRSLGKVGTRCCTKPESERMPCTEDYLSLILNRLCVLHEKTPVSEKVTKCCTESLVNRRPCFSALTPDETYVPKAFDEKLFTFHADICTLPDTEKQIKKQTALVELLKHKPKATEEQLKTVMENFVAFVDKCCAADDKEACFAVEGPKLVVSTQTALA

% inhibition of hTFPI activity [1]: 0% | dPT in hemoA plasma [1]: 79 s | EC50 [2]: 792 nM | EC50 [3]: 202 nM | Kd [4]: 115 nM | Kd [5]: 25.2 nM | binding result (BSA): no binding
B1: TP-2E5 Fab (Fab, V domains shown)
VH: QVQLQQSGPGLVKPSQTLSLTCAISGDSVSSNSAAWSWIRQSPGRGLEWLGMIFYRSKWNNDYAVSVKSRITINPDTSKNQFSLQLNSVTPEDTAVYYCARVNANGYYAYVDLWGQGTLVTVSS
VL: DIQMTQSPSSLSASVGDRVTITCRASQPIYNSLSWYQQKPGKAPKLLIYGVSNLQSGVPSRFSGSGSGTDFTLTISSLQPEDFAVYYCLQVDNLPITFGQGTKVEIKR
notes: Human Fab from HuCal Gold, expressed in E. coli TG1

% inhibition of hTFPI activity [1]: 23% | dPT in hemoA plasma [1]: 70.9 s | EC50 [2]: 0.62 nM | EC50 [3]: 1040 nM | Kd [4]: 6.57 nM | Kd [5]: 29.8 nM | binding result (BSA): no binding
B2: TP-2A2 Fab (Fab, V domains shown)
VH: QVQLVESGGGLVQPGGSLRLSCAASGFTFSNNAMNWVRQAPGKGLEWVSTISYDGSNTYYADSVKGRFTISRDNSKNTLYLQMNSLRAEDTAVYYCARQAGGWTYSYTDVWGQGTLVTVSS
VL: DIELTQPPSVSVAPGQTARISCSGDNIRTYYVHWYQQKPGQAPVVVIYGDSKRPSGIPERFSGSNSGNTATLTISGTQAEDEADYYCQSYDSEADSEVFGGGTKLTVLG
notes: as for B1

% inhibition of hTFPI activity [1]: 0% | dPT in hemoA plasma [1]: 72.3 s | EC50 [2]: 32.8 nM | EC50 [3]: 108 nM | Kd [4]: 21.6 nM | Kd [5]: 33.6 nM | binding result (BSA): no binding
B3: TP-3C1 Fab (Fab, V domains shown)
VH: QVQLVESGGGLVQPGGSLRLSCAASGFTFSSYSMHWVRQAPGKGLEWVSGISYSSSFTYYADSVKGRFTISRDNSKNTLYLQMNSLRAEDTAVYYCARALGGGVDYWGQGTLVTVSS
VL: DIALTQPASVSGSPGQSITISCTGTSSDLGGFNTVSWYQQHPGKAPKLMIYSVSSRPSGVSNRFSGSKSGNTASLTISGLQAEDEADYYCQSYDLNNLVFGGGTKLTVLG
notes: Human Fab from HuCal Gold, expressed in E. coli TG1; Shares its VL with TP-2G9 and its VH with TP-3F2

% inhibition of hTFPI activity [1]: 0% | dPT in hemoA plasma [1]: 82.7 s | EC50 [2]: 10.8 nM | EC50 [3]: 194 nM | Kd [4]: 48.5 nM | Kd [5]: 35.7 nM | binding result (BSA): no binding
B4: TP-2G9 Fab (Fab, V domains shown)
VH: QVQLVESGGGLVQPGGSLRLSCAASGFTFNSYAMTWVRQAPGKGLEWVSAIKSDGSNTYYADSVKGRFTISRDNSKNTLYLQMNSLRAEDTAVYYCARNDSGWFDVWGQGTLVTVSS
VL: B3 VL
notes: as for B1

% inhibition of hTFPI activity [1]: 0% | dPT in hemoA plasma [1]: 72.3 s | EC50 [2]: 42.8 nM | EC50 [3]: 327 nM | Kd [4]: 21.6 nM | Kd [5]: 23.7 nM | binding result (BSA): no binding
B5: TP-3A4 Fab (Fab, V domains shown)
VH: QVQLVESGGGLVQPGGSLRLSCAASGFTFSSYWMHWVRQAPGKGLEWVSSISYDSSNTYYADSVKGRFTISRDNSKNTLYLQMNSLRAEDTAVYYCARYGGMDYWGQGTLVTVSS
VL: DIELTQPPSVSVAPGQTARISCSGDNLRDKYASWYQQKPGQAPVLVIYSKSERPSGIPERFSGSNSGNTATLTISGTQAEDEADYYCSSYTLNPNLNYVFGGGTKLTVLG
notes: as for B1

% inhibition of hTFPI activity [1]: 100% | dPT in hemoA plasma [1]: 53.9 s | EC50 [2]: 0.74 nM | EC50 [3]: 2.64 nM | Kd [4]: 15.8 nM | Kd [5]: 51.8 nM | binding result (BSA): no binding
B6: TP-4B7 Fab (Fab, V domains shown)
VH: QVQLQQSGPGLVKPSQTLSLTCAISGDSVSSNSAAWSWIRQSPGRGLEWLGIIYKRSKWYNDYAVSVKSRITINPDTSKNQFSLQLNSVTPEDTAVYYCARWHSDKHWGFDYWGQGTLVTVSS
VL: DIVMTQSPLSLPVTPGEPASISCRSSQSLVFSDGNTYLNWYLQKPGQSPQLLIYKGSNRASGVPDRFSGSGSGTDFTLKISRVEAEDVGVYYCQQYDSYPLTFGQGTKVEIKR
notes: as for B1

% inhibition of hTFPI activity [1]: 93% | dPT in hemoA plasma [1]: 75.1 s | EC50 [2]: 74.4 nM | EC50 [3]: 8.68 nM | Kd [4]: 1140 nM | Kd [5]: 49.1 nM | binding result (BSA): no binding
B7: TP-3G1 Fab (Fab, V domains shown)
VH: QVQLQQSGPGLVKPSQTLSLTCAISGDSVSSNSGGWGWIRQSPGRGLEWLGLIYYRSKWYNAYAVSVKSRITINPDTSKNQFSLQLNSVTPEDTAVYYCARYLGSNFYVYSDVWGQGTLVTVSS
VL: DIQMTQSPSSLSASVGDRVTITCRASQGISSYLHWYQQKPGKAPKLLIYGASTLQSGVPSRFSGSGSGTDFTLTISSLQPEDFATYYCQQQNGYPFTFGQGTKVEIKR
notes: as for B1

binding result (human TFPI K1): no binding
B8: TP-2B3 chimeric IgG (antibody, V domains shown)
VH: QVQLQQSGPGLVKPSQTLSLTCAISGDSVSSNSAAWGWIRQSPGRGLEWLGMIYYRSKWYNSYAVSVKSRITINPDTSKNQFSLQLNSVTPEDTAVYYCARTMSKYGGPGMDVWGQGTLVTVSS
VL: DIVLTQSPATLSLSPGERATLSCRASQNIGSNYLAWYQQKPGQAPRLLIYGASTRATGVPARFNGSGSGTDFTLTISSLEPEDFAVYYCQQLNSIPVTFGQGTKVEIKR
notes: Chimeric IgG: human variable regions on mouse constant regions, murine IgG1 isotype, made in HKB11 cells

% inhibition of hTFPI activity [1]: 15% | dPT in hemoA plasma [1]: 70.7 s | EC50 [2]: 33.6 nM | EC50 [3]: 47.1 nM | Kd [4]: 16 nM | Kd [5]: 25.7 nM | binding result (BSA): no binding
B9: TP-3G3 Fab (Fab, V domains shown)
VH: QVQLVESGGGLVQPGGSLRLSCAASGFTFSSYSMSWVRQAPGKGLEWVSSISSSSSNTYYGDSVKGRFTISRDNSKNTLYLQMNSLRAEDTAVYYCARMHYKGMDIWGQGTLVTVSS
VL: DIQMTQSPSSLSASVGDRVTITCRASQNIHSHLNWYQQKPGKAPKLLIYDASSLQSGVPSRFSGSGSGTDFTLTISSLQPEDFAVYYCQQYYDYPLTFGQGTKVEIKR
notes: as for B1

% inhibition of hTFPI activity [1]: 0% | dPT in hemoA plasma [1]: 62.5 s | EC50 [2]: 0.6 nM | EC50 [3]: 0.6 nM | Kd [4]: 2.01 nM | Kd [5]: 9.33 nM | binding result (BSA): no binding
B10: TP-2C7 Fab (Fab, V domains shown)
VH: QVQLQQSGPGLVKPSQTLSLTCAISGDSVSSNSAAWGWIRQSPGRGLEWLGIIYYRSKWYNHYAVSVKSRITINPDTSKNQFSLQLNSVTPEDTAVYYCARSNWSGYFDYWGQGTLVTVSS
VL: B9 VL with N28D, H30R, S31N, H32N, N34A, D50A, Y91R, Y92N, D93G, Y94F
notes: as for B1

binding result (human TFPI K1): no binding
B11: TP-2A8-IgG (antibody, V domains shown)
VH: QVQLVESGGGLVQPGGSLRLSCAASGFTFRSYGMSWVRQAPGKGLEWVSSIRGSSSSTYYADSVKGRFTISRDNSKNTLYLQMNSLRAEDTAVYYCARKYRYWFDYWGQGTLVTVSS
VL: DIELTQPPSVSVAPGQTARISCSGDNLRNYYAHWYQQKPGQAPVVVIYYDNNRPSGIPERFSGSNSGNTATLTISGTQAEDEADYYCQSWDDGVPVFGGGTKLTVLG
notes: as for B8
